# From patent EP4613763A1 (Chuang, Woei-jer, dated 2025)
# Target: T1, vascular endothelial growth factor receptor 2 (UniProt P35968 20-764, limits assumed)
# T1 construct: also called VEGFR2; kinase insert domain receptor
# Experiment: ELISA, binding affinity to VEGFR2
# T1 sequence (P35968 20-764 limits assumed): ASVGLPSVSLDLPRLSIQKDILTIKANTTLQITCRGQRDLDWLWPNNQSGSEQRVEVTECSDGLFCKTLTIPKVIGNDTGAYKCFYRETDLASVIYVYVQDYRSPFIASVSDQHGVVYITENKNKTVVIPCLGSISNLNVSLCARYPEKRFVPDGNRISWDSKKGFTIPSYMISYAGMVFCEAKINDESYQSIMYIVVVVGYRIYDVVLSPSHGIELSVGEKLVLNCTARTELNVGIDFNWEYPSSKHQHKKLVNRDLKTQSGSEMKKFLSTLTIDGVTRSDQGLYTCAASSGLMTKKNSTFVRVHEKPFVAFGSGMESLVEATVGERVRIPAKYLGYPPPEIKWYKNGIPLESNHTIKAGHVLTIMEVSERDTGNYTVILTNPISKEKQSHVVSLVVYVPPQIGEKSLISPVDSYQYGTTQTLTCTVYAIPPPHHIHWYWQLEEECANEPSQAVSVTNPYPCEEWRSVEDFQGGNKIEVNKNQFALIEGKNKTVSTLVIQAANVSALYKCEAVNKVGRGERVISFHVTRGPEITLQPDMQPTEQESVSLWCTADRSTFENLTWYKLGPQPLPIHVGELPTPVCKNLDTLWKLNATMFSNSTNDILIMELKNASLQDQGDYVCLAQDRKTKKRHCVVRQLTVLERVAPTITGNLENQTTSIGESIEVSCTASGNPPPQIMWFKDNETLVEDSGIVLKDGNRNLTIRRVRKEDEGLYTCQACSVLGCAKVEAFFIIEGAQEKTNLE
row,IC50,Binder
1,16.8 nM,protein C7 (designed binder) VSDVPRDLEVVAATPTSLLISWRHPHFPTRYYRITYGETGGNSPVQEFTVPLQPPTATISGLKPGVDYTITVYAVTDGRNGRLLSIPISINYRT
2,18.9 nM,"C7-LL2-His (designed binder, not shown: small tags and cut ends, Designed disulfide bond between Cys17 and Cys60., His-tagged C7 variant with one introduced disulfide bond) VSDVPRDLEVVAATPTCLLISWRHPHFPTRYYRITYGETGGNSPVQEFTVPLQPPTATICGLKPGVDYTITVYAVTDGRNGRLLSIPISINYRT"
3,17.6 nM,"C7-SL1-His (designed binder, not shown: small tags and cut ends, Designed disulfide bond between Cys8 and Cys89., His-tagged C7 variant with one introduced disulfide bond) VSDVPRDCEVVAATPTSLLISWRHPHFPTRYYRITYGETGGNSPVQEFTVPLQPPTATISGLKPGVDYTITVYAVTDGRNGRLLSIPICINYRT"
4,19.2 nM,"C7-SL1-LL3-His (designed binder, not shown: small tags and cut ends, Designed disulfide bonds Cys8-Cys89 and Cys39-Cys67., His-tagged C7 variant with two introduced disulfide bonds) VSDVPRDCEVVAATPTSLLISWRHPHFPTRYYRITYGECGGNSPVQEFTVPLQPPTATISGLKPGVCYTITVYAVTDGRNGRLLSIPICINYRT"
5,17.1 nM,"C7-SL2-His (designed binder, Designed intramolecular disulfide bond Cys35-Cys45 (printed as T36/V46 in the Met-included numbering)., His-tagged C7 variant with one introduced disulfide bond; not shown: N-terminal Met and C-terminal His tag of the expressed construct) VSDVPRDLEVVAATPTSLLISWRHPHFPTRYYRICYGETGGNSPCQEFTVPLQPPTATISGLKPGVDYTITVYAVTDGRNGRLLSIPISINYRT"
6,17.5 nM,"C7-SS1-His (designed binder, not shown: small tags and cut ends, Designed disulfide bond between Cys19 and Cys58., His-tagged C7 variant with one introduced disulfide bond) VSDVPRDLEVVAATPTSLCISWRHPHFPTRYYRITYGETGGNSPVQEFTVPLQPPTACISGLKPGVDYTITVYAVTDGRNGRLLSIPISINYRT"
7,16.6 nM,"C7-LL4-His (designed binder, not shown: small tags and cut ends, Designed disulfide bond between Cys63 and Cys66., His-tagged C7 variant with one introduced disulfide bond) VSDVPRDLEVVAATPTSLLISWRHPHFPTRYYRITYGETGGNSPVQEFTVPLQPPTATISGLCPGCDYTITVYAVTDGRNGRLLSIPISINYRT"
8,21.3 nM,"C7-SL3-His (designed binder, Designed intramolecular disulfide bond Cys37-Cys45 (printed as G38/V46 in the Met-included numbering)., His-tagged C7 variant with one introduced disulfide bond; not shown: N-terminal Met and C-terminal His tag of the expressed construct) VSDVPRDLEVVAATPTSLLISWRHPHFPTRYYRITYCETGGNSPCQEFTVPLQPPTATISGLKPGVDYTITVYAVTDGRNGRLLSIPISINYRT"
9,9.8 nM,"C7-LL3-His (designed binder, not shown: small tags and cut ends, Designed disulfide bond between Cys39 and Cys67., His-tagged C7 variant with one introduced disulfide bond) VSDVPRDLEVVAATPTSLLISWRHPHFPTRYYRITYGECGGNSPVQEFTVPLQPPTATISGLKPGVCYTITVYAVTDGRNGRLLSIPISINYRT"
10,18.5 nM,"C7-SL4-His (designed binder, not shown: small tags and cut ends, Designed disulfide bond between Cys67 and Cys91., His-tagged C7 variant with one introduced disulfide bond) VSDVPRDLEVVAATPTSLLISWRHPHFPTRYYRITYGETGGNSPVQEFTVPLQPPTATISGLKPGVCYTITVYAVTDGRNGRLLSIPISICYRT"
11,12.8 nM,"C7-SL1-LL2-His (designed binder, not shown: small tags and cut ends, Designed disulfide bonds Cys8-Cys89 and Cys17-Cys60., His-tagged C7 variant with two introduced disulfide bonds) VSDVPRDCEVVAATPTCLLISWRHPHFPTRYYRITYGETGGNSPVQEFTVPLQPPTATICGLKPGVDYTITVYAVTDGRNGRLLSIPICINYRT"
